Data on 20 sequences can be found in the DeepSol protein solubility set.

The data set in a line: soluble on expression in E. coli; label from the status in PepcDB or PDB records.
As to “MSLVHPAGMAIMISGGIVQKIAPSDDILSEFAPWYPANSVSTDVEVIDIGEMSVVPGFVDSHTHLPWSGDRTNELTMRLRGKTYREIAQSGGGIMKTVSHTRSTPKRNLVASGISRVQECMRNGTTTLEAKSGYGLDLDSEVKLLEAISEIDRSTAIDIRATWLGAHDFPPEMGREDYVEHLISDQLPVISELSLARWVDVFCEQGWFTNEQTEDIVKASKDYGMKSRLHVDEFVDSGGLALAAELGSVSADHVACSNDDSRVSAAESGTVQTFLPGTPYVLGKSLELPIKKCITEDWPFSIATDFNPNCPITSLPLIGSFVTHRLGVDPIASLVAVTRNPATTMFDEEEPRGVISEGSIADMNVLWSSSADSWCQTPGSSPVRDTIKNGIIVNSNKTYEGHHHHHH”, the “soluble on expression in E. coli” value is listed as “soluble”.

As for “MGSSHHHHHHGKTIFVIVPTNEEQVAFLEALAKQDELNFDWQNPPTEPGQPVVILIPSDMVEWFLEMLKAKGIPFTVYVEEGGSENLYFQGGGGGGGSEVEASPRVAMIVLEGFSGTVFHALMESGVHMPNIAHMLSSQKGVWAECATSSQSSCARAVVVENDTSGEVYVSAAAAMTSLFSGVSPREHQVYNGSLESMSMYANTSKMNPSIAKRVKDAGMKVSVVGTSHAINSLSIALGSCSRPGVLDMECAASREELLRASVDEYSGSVQLDCLASSSCNMDTRKMTSPTDPQQCSSGQAEAQFTRHLNSIFGGLAYSTQTQEAAMQNTVADNLDNSLFVFHFDALAVRAASTYLPDFQYNASSKEYVAQVYLLDALVGQVISYVRDRARSQKENWLIVGVSNHGGDDKPYAIPNPVSTSENTIAFFMATYTNNMKRFVTLAPLQRPVTQLDVLPTVLTWLNVVPFDAETSAVTAGTNTTAASPAVEARVMERRHFEGLVQGICSSGASLKNCAL”, the “soluble on expression in E. coli” value is “not soluble”.

For “MGSDKIHHHHHHMKSYIIVGAGILGASTAYHLAKTGARVTVIDRKEPGQATDAAAGIVCPWLSQRRNQDWYQLAKGGARYYKDLIHQLEKDGESDTGYKRVGAISIHTDASKLDKMEERAYKRREDAPEIGDITRLSASETKKLFPILADGYESVHISGAARVNGRALCRSLLSAAEKRGATVIKGNASLLFENGTVTGVQTDTKQFAADAVIVTAGAWANEILKPLGIHFQVSFQKAQIMHFEMTDADTGSWPVVMPPSDQYILSFDNGRIVAGATHENDAGLDDLRVTAGGQHEVLSKALAVAPGLADAAAVETRVGFRPFTPGFLPVVGAVPNVQGLYAANGLGASGLTMGPFLGAELAKLVLGKQTELDLSPYDPAGALA”, the “soluble on expression in E. coli” value was “not soluble”.

As to “YWFRSHKLERQLAEFQMQNELQYRYYAELEQKYRESRKIMHDMKNHLQAVEHLYQAKDGQEQGGAYVKDLYHMLNLLGEKYYSSNRMLNIICNDKLSLARHPAVAISVEIGDVDFSDLRDIDITTIFANLLDNALEAVEAFGEGAYLNLKIQEVHHFRVISIVNASRPGMKKEGHMGVGLENVRRTVEAYQGTMQCEIVGEEYRVSVMLPGKEDS”, the “soluble on expression in E. coli” value is “not soluble”.

Consider “MHHHHHHGSMSMPNHQNMLDNQTILITGGTGSFGKCFVRKVLDTTNAKKIIVYSRDELKQSEMAMEFNDPRMRFFIGDVRDLERLNYALEGVDICIHAAALKHVPIAEYNPLECIKTNIMGASNVINACLKNAISQVIALSTDKAANPINLYGATKLCSDKLFVSANNFKGSSQTQFSVVRYGNVVGSRGSVVPFFKKLVQNKASEIPITDIRMTRFWITLDEGVSFVLKSLKRMHGGEIFVPKIPSMKMTDLAKALAPNTPTKIIGIRPGEKLHEVMIPKDESHLALEFEDFFIIQPTISFQTPKDYTLTKLHEKGQKVAPDFEYSSHNNNQWLEPDDLLKLL”, for which the “soluble on expression in E. coli” value is “soluble”.

As to NSSFTPSTVPNINFSGLNGGITNTATNALRPSDIFGANA, the “soluble on expression in E. coli” value is recorded as “soluble”.

For the sequence “MGSDKIHHHHHHMARNAKLDRLLTLVKALGESAEGLTLDEMAEVIGANRRTAERLRDLILVHFDLEEGVDDRHKRFRIPGTLPSPFIQPNVAEIAALKSLADTAHKAGSAQAPLLESLVGKVQAGLRREVKSRMAPDLEPLVRLQRHHVPAGPMIEHAPETVAQVQGAMMAGMCLEFDYLADGAAEPKWRRVIPVGLIHGPATYLIGKIPGRDLEPAPYRLDRIIAARVSNQPGAAGEDWDLDQWMSASFGIWREEGYEIVLRVAHESAERARKWRFHPQQMIEQDGEELIVRFHSGGLREIAEHLFTWGGEVRIEGPEELREMMRERLSAAGRAVV”, the “soluble on expression in E. coli” value is recorded as “not soluble”.

With “SDIEAYFERIGYKNSVNKLDLATLTEVLQHQMRAVPFENLSMHCGEAMCLGLEATFDHIVRKKRGGWCLQVNHLLYWALTKMGFETTMLGGYVYITPVNKYSSEMVHLLVQVTISDRNYIVDSAYGSSYQMWEPLELTSGKDQPQVPAIFRLTEENGTWYLDQIRREQDVPNQEFVNSDLLEKSKYRKIYSFTLEPRTIEDFEYVNTYLQTSPASVFVSTSFCSLQTSEGVCCLIGSTLTSRRFSYKDNVDLVEFKSLTEEEIEDVLKTTFGISLEKKFVPKHGELVFTI”, the “soluble on expression in E. coli” value is listed as “soluble”.

Regarding “MTDNTAVRRRYEKSFTERPGFTEDEIEEIREAFNLLDTDGTGTIDPKEIKCAMQSLGLDAKNPMIFRMIADLEKDGYSSIDFEEFMEVITSKLGNKDTREGIQRIFNLFDDDKTGSISLKNLKRVAKELGETLTDEELRDMIDRADSKGEGEISFEDFYTIMTKKSFL”, the “soluble on expression in E. coli” value is “not soluble”.

Turning to “MAAPLIPVLTAPTAAGKTALALRLAREYGLEIVAADAFTVYRGLDLGTAKPTPQERASVPHHLLDVVDVTQSYDVAQYAAQAEAAIVDILARGRLPLVVGGTGFYLSALSRGLPLTPPSDPKMRAALEAELQERGLDALLAEIEQANPAEAARMERNPRRVVRALEVYRAAGRFPGEFGYSPPAFQYQVFAFSPPAAEMEQRVQERTAAMLRAGWPQEAQWLAGQVPPEQEPRPTVWQALGYAEALAVAQGRLSLAGAEQAIALATRQYGKRQLTWMRRQLGAEVQSPDAAEAHLRAFLERSGAPSLEHHHHHH”, the “soluble on expression in E. coli” value is given as “not soluble”.

In the case of “GPLGSDFPQHSQHVLEQLNQQRQLGLLCDCTFVVDGVHFKAHKAVLAACSEYFKMLFVDQKDVVHLDISNAAGLGQVLEFMYTAKLSLSPENVDDVLAVATFLQMQDIITACHALKSLA”, the “soluble on expression in E. coli” value is listed as “soluble”.

Take “EDKIMSYNAFFWMWVHDMLIDSIKWRDEHGRCINKDKGKTCIKGCNKKCICFQKWVEQKKTEWGKIKDHFRKQKDIPKDWTHDDFLQTLLMKDLLLEIIQDTYGDANEIKRIEALLEQAGVGGIDFAALAGLYTKGFVAEKDTTIDKLLQHEQKEADKCLKTHTDDTCPPQEDRSVARS”: the “soluble on expression in E. coli” value is listed as “soluble”.

For “MNFRLSEEHEMLRKMVREFAENEVAPTAAERDEEERFDRGIFNKMAELGLTGIPWPEEYGGIGSDYLAYVIAVEELSRVCASTGVTLSAHISLASWPIYKFGNEEQKQKYLRALATGEKLGAYALSEPGAGSDVASMKTRAVKDGDHYILNGSKVWITNGGEAEIYVVFAVTDPEKRHKGISAFIVEKGTPGFSFGKKEKKLGIRSSPTTELIFEDCRIPKENLLGQEGEGFKIAMMTLDGGRNGIAAQAVGIAQGALDAAVDYAKQRVQFGKPIIEQQGVAFKLADMATAIEAARLLTYQAAWLESNGLPYGKASAMAKLFAGDTAMKVTVEAVQIFGGNGYTKDYPVERFMRDAKITQIYEGTQEIQRLVISRMLTRN”, the “soluble on expression in E. coli” value was “soluble”.

As for “MTKTEKDWFQRLIKLIKSDGRTMIEISKAAGCGQNYVQQMIKGGKRPSVDKLMALLNTLGNASAIYVITGFNISDEDLKLIALISSGDKKKIEALSLLLTEKKQ”, the “soluble on expression in E. coli” value was “not soluble”.

As to “VQLVRLLEEKIKSLQIEIENLRKELNYYKAEMEKMLSPPLIEAVVLDVLPDGRVLVRSSSGPNLVVNIASHIDQKLIKPGISVALNQRGSTILEVLPQKEDPIVKTMEIIERPN”, the “soluble on expression in E. coli” value is “not soluble”.

In the case of “MRKKKDGQNLPDFRKNPPKLDKKAYEKELKRLQAELVDLQQWVVETGARVVIVMEGRDAAGKGSAIKRITQYLNPRSARIEALPTPNSREKGQWYFQRYIEKLPTAGEIVIFDRSWYNRAGVERVMGFCTSQEYRRFLHQAPIFERLLVEDGIHLRKYWFSVSDEEQIERFEDRLSDPLRRWKLSPMDLQSITRWEDYSRAKDEMFIHTDIPSAPWYTVESEDKKRSRINVISHLLSTIPYEKIDRPLPEIPHRPDSESDYVRPPRDEFRYVPDVAAHLEEERIKKEEKAKKAKKPAKAAGKNSDKQKSSGGKGKKKSKK”, the “soluble on expression in E. coli” value is given as “not soluble”.

“MGSDKIHHHHHHMPEKKIDGRRKAAVLLVALGPEKAAQVMKHLDEETVEQLVVEIANIGRVTPEEKKQVLEEFLSLAKAKEMISEGGIEYAKKVLEKAFGPERARKIIERLTSSLQVKPFSFVRDTDPVQLVNFLQSEHPQTIAVVLSYLDPPVAAQILGALPEELQTEVLKRIALLERTSPEVVKEIERNLEKKISGFVSRTFSKVGGIDTAAEIMNNLDRTTEKKIMDKLVQENPELADEIRRRMFVFEDILKLDDRSIQLVLREVDTRDLALALKGASDELKEKIFKNMSKRAAALLKDELEYMGPVRLKDVEEAQQKIINIIRRLEEAGEIVIARGGGEELIM”: the “soluble on expression in E. coli” value was “not soluble”.

Regarding “MGSDKIHHHHHHMNNSIITDDEVREFYLNCSSQTIIESLLSLHESLRLYSQNHEILLNRMFKKLDETNADSNISHIFMPVVSKDFSGIKILVNNNNKNFQGVINVIEPETGKLIGCFEAKQITAIRTALASCIGLYKQLSCSHDKLFRFENGTCYLTCFGTGLQAFWHIYIAIKLIMSGIVGESLKLVEINILYHNNMMSLDRLKSLKNLFGSNIKIELNQYQINDISSEGNGAVSNSDIIFGCLPTLEPNLFLRQLLNSKASVEQKHTYISLIGSYKPVMHECDKELIDKFKSDNESACILVDSREHTLLESGELIDSNIAPHNLIEIGELDTLKNTVLNLNEKGCKRTITLCKIVGLAVMDVALAKEFLSLRTKNTENKE”, the “soluble on expression in E. coli” value is recorded as “not soluble”.

Take “GPGSMDRGYPRRREGGASFGGGGFGGVGGFSGGSGGPPAGGPRRRFRSDFDPEEYAPRRKLHGQRPVDFYSPAIRHVLTRLVPRSTPYSYHVAPHEYYTKDLVTASVTNYNASTALCTQWVNTSYHPDSKGGRIRTPLYALQWSPSGRRLLCSTGRGEFLLFNGQSFGVEVKTVAHEDNRPCRAIAWGRRHDLILSGDDAGKLKMWMPNFVFMSEVDTSHRAVREISWAPLELKFCTAGQDGSAKVWDTNTVGAHTATAGASDGNQAVLEEVKLEGHGGDVTTAHWHPYRALIATGSQDTQCRLWDPRTASRGSIAALHGHSQALTCVRWHPDGRTLLSASKDGTVKLWDIRKTQPEVKRFTGHTDAVDKVDWHPTVSDLFASTGADGSVMYWMVAEGDGTMTHGVEEVVHDAAMIEAAHEKFRDKPNPVHCVAWSPLGNILASSGHEVKYWTRNKPGALEEKERGVESDILDEQGHVMV”: the “soluble on expression in E. coli” value is on record as “not soluble”.

For the sequence “MKPLSGLKVLDLSRVLAGPLCTMILADLGAEVVKVEPPWGDETRGWGPPFVEGESAYFLAVNRGKRSVALDLKRPEGQEAVRRLAQKADVLVENFKTGDLRRFGLDYESLKPLNPRLIYLSITGFGHTGPRAKEPGYDAALQGYTGIMSVTGEPEGPPMKVGVAWIDVMTGMMGALAVLAALWERERSGLGQHIDLSLFDVGLFALANLGESFLLTGKPPKRLGNAHAQIVPYGAFPAEDGWLVLAVGNDEQFARLCQVVGLPDLARRFPTNALRVEHREEVVEALSRALKARSRAHWLERFKEAGVPAAPVNDLKEAFQDPQARARGAVWTLPHPLLGALPTLANPLRFLSRTPAGPGLPPPLLGEHTREVLLEAGYTPEAVADLVQRGIAKEAPPASQRRPDRGA”, the “soluble on expression in E. coli” value was “soluble”.
